Reference: the supplement of paper PMC10126150
± gives the standard deviation of the averaged measurements.

System: ATP
Test: switch fluorescence ratio, 500 uM ATP over buffer (Cy3 cluster intensity, sum of 5 cycles each) (fold (ratio)); higher = stronger signal-on switching upon ATP binding; sequences stand for … in TCGTCGGCAGCGTCAGATGTGTATAAGAGACAGTTTTTTTTTTTTTTTTTTTTTTTTT…TC
Conditions: aptamer strand: ATP DNA aptamer (quencher-CACCTGGGGGAGTATTGCGGAGGAAGG + anchor), 100 nM annealed; ATP concentration: 500 uM
Method in brief: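 Clusters with intensities outside 100-1000 RFU were excluded. The remaining Cy3-labelled switching-strand clusters on a modified Illumina MiSeq flow-cell had been annealed to 100 nM quencher-labelled ATP aptamer and imaged in selection buffer, then after 15 min with 500 uM ATP at 22 °C, for five cycles separated by NaOH stripping and re-annealing. The fluorescence ratio, averaged per switch-domain sequence, is each cluster's summed target-cycle Cy3 intensity over its summed buffer-cycle Cy3 intensity.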
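Note: ATP exposure 15 min at 22 °C before imaging.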

| Sequence | switch fluorescence ratio |
| --- | --- |
| GGACTTGGTT | 1.01 ± 0.034 |
| GGTACTTTGT | 1.03 ± 0.039 |
| GGGGGAGTAA | 1.05 ± 0.15 |
| CGTGGGAATA | 0.9992 ± 0.0082 |
| GGGGGCACTT | 1.008 ± 0.0045 |
| AATAATGGTT | 1.01 ± 0.013 |
| GGAACAGGGT | 0.934 ± 0.072 |
| CCTCGTTGAA | 1.22 ± 0.026 |
| ATAGGGTACA | 1.11 ± 0.052 |
| TATCGTGGAG | 1.04 ± 0.042 |
| CTTTAAAGTT | 1.09 ± 0.18 |
| GGATGACCTA | 0.976 ± 0.021 |
| TTGCTCGTCG | 1.04 ± 0.0046 |
| GATGTGCGTC | 1.01 ± 0.023 |
| ATAGTACGCC | 1.28 ± 0.33 |
| AAGGGGCCGG | 1.0099 ± 8.3e-05 |
| GAGAGGTTTT | 1 ± 0.029 |
| TCCAAAGAGA | 0.97 ± 0.039 |
| CCAAGGGTTT | 0.993 ± 0.06 |
| TGCGATATTA | 1.02 ± 0.031 |
| TGGGGTCTGA | 0.974 ± 0.017 |
| CTAGTAAAGT | 0.977 ± 0.037 |
| ATCGAATTGG | 0.998 ± 0.026 |

| Sequence | switch fluorescence ratio |
| --- | --- |
| CATCGAGTTC | 1.05 ± 0.025 |
| GGGGACCGCG | 0.969 ± 0.016 |
| GTTGGGTATT | 1.01 ± 0.021 |
| CGTGCTGGGA | 1.03 ± 0.033 |
| TATGCCTCTT | 1.01 ± 0.031 |
| TGCGTCCCAA | 1.34 ± 0.021 |
| AAAACGAGTG | 1.02 ± 0.023 |
| AAGATTTTTT | 1.01 ± 0.016 |
| GAGGTCGTAA | 1.05 ± 0.051 |
| GTCTGTGGGA | 0.9998 ± 0.0091 |
| CGGTAGGATG | 0.971 ± 0.011 |
| TGTGCAGAAA | 0.9899 ± 0.0059 |
| CACGGGGTAC | 1.34 ± 0.016 |
| TTGACTTGTG | 0.971 ± 0.022 |
| GCCTTGTATG | 0.976 ± 0.03 |
| GGCTTTTTAC | 1.06 ± 0.036 |
| GGGGTAGATG | 0.9985 ± 0.0033 |
| GGAAACGATT | 1.01 ± 0.035 |
| TTACTAAGGG | 1.04 ± 0.04 |
| TTGCTTAAAC | 1.02 ± 0.025 |
| AAAATCAGAG | 0.97 ± 0.024 |
| AGGGGTTCTG | 1.01 ± 0.046 |
| TGTAAAAGGA | 1.01 ± 0.021 |

| Sequence | switch fluorescence ratio |
| --- | --- |
| GCAAGATGAT | 1.17 ± 0.17 |
| GGGGGACTGG | 0.981 ± 0.019 |
| TTTAGGGTTT | 1.06 ± 0.19 |
| TTTCTGTTTC | 1.04 ± 0.052 |
| GTCAATTTGT | 1.02 ± 0.018 |
| GTTAGTGTGC | 0.984 ± 0.013 |
| TCAGTATTTT | 1.018 ± 0.0047 |
| GGTGAGTGCA | 1.02 ± 0.07 |
| ACAATTGGTC | 1.02 ± 0.034 |
| AGGTAAAGTA | 0.915 ± 0.025 |
| GGTTTTTATG | 1.004 ± 0.009 |
| GGTTACTTGG | 0.9885 ± 0.0097 |
| GGGGCGCAGG | 0.993 ± 0.011 |
| TTACGTAGAT | 1.12 ± 0.077 |
| ATTGTTGGAT | 1.013 ± 0.0067 |
| GAGAGGGTAG | 0.9801 ± 0.0095 |
| CTTGAAAAGC | 1.05 ± 0.021 |
| TGGGTGCTGA | 0.954 ± 0.052 |
| TACTGGTCCA | 1.051 ± 0.0087 |
| AGTAACCGGG | 1.02 ± 0.035 |
| GCAGTCTTTG | 0.9936 ± 0.0046 |
| CGTAGCGTTT | 0.998 ± 0.04 |
| TATTCTCGAC | 1.01 ± 0.013 |

| Sequence | switch fluorescence ratio |
| --- | --- |
| GAGTGCGGGA | 1.02 ± 0.044 |
| CAGGGGCCGG | 0.978 ± 0.018 |
| GACTTATTTT | 0.9849 ± 0.0014 |
| ATATGTGGGG | 1.01 ± 0.011 |
| AAGTTCGTGC | 1.02 ± 0.058 |
| GTATGGAGCG | 0.981 ± 0.019 |
| CAATTTAAGG | 0.997 ± 0.041 |
| AAAAAAGTTT | 1.02 ± 0.033 |
| ATTGTGGATC | 1.03 ± 0.031 |
| CGGGGTGCGG | 1 ± 0.056 |
| CGGGCGAATT | 0.982 ± 0.014 |
| AACTTTAGGT | 0.987 ± 0.023 |
| CGGGGTTTAG | 0.992 ± 0.051 |
| GGGGGATATG | 0.984 ± 0.027 |
| TATTTTTGTG | 0.985 ± 0.011 |
| GCGAAAGTCG | 1.018 ± 0.0069 |
| TGCGATTTGT | 1.04 ± 0.043 |
| AACTTATTTG | 1 ± 0.028 |
| AGCAGGCCGG | 0.976 ± 0.025 |
| GTTTGGGATA | 0.992 ± 0.034 |
| GGGAGCAAGG | 1.1 ± 0.018 |
| ATGGAAAAGA | 0.978 ± 0.016 |
| TTGGGTTGGT | 1.01 ± 0.049 |

| Sequence | switch fluorescence ratio |
| --- | --- |
| AGGAAAAGGG | 1.14 ± 0.1 |
| ATTAGAAGGT | 0.994 ± 0.051 |
| GGGTGGGGTC | 1 ± 0.034 |
| GGGGCGCCTG | 1.01 ± 0.048 |
| AATTTGGTG | 1.026 ± 0.0011 |
| TTTTGTATTA | 0.99 ± 0.029 |
| GTCATAGTTC | 0.966 ± 0.015 |
| AAGTAAGTGG | 1.03 ± 0.042 |
| CGTGGCGCGG | 0.9942 ± 0.0096 |
| AAGGGTGTTT | 1.01 ± 0.034 |
| ATTTTAATGA | 0.934 ± 0.028 |
| CGGCCTCTGC | 1.15 ± 0.091 |
| ATCTTTTGAG | 0.97588 ± 0.00047 |
| GGATAGTGGT | 1.01 ± 0.0079 |
| TTAAAAGTAT | 1.01 ± 0.043 |
| GGTTGTACGA | 0.986 ± 0.01 |
| CCAAGGCTTA | 1.06 ± 0.063 |
| AGAGGGATTA | 0.999 ± 0.037 |
| AATTTAGTAG | 1 ± 0.013 |
| GGGCGTGTTT | 1 ± 0.031 |
| TTAATGGGGT | 1 ± 0.039 |
| TTTGTATGAG | 1.03 ± 0.025 |
| GGTTCATTAG | 1.01 ± 0.037 |

| Sequence | switch fluorescence ratio |
| --- | --- |
| TAAACCGAGC | 1.73 ± 0.27 |
| AAGTTAATGT | 1 ± 0.022 |
| AGAATTCCCT | 1.011 ± 0.01 |
| GTTGGAGTTT | 0.975 ± 0.016 |
| TCCGCAGATT | 4.02 ± 0.047 |
| TATTCTAATT | 1.004 ± 0.006 |
| CCCGGCTGTT | 1.02 ± 0.067 |
| GTGTATTGGT | 0.983 ± 0.024 |
| CTTTGTCGCT | 1.01 ± 0.029 |
| GACCCGGGTT | 1.11 ± 0.15 |
| CGGTTATTTA | 1.04 ± 0.011 |
| GGGGAGTTTG | 1.01 ± 0.064 |
| CATTTGTCCG | 1.01 ± 0.071 |
| ATAGTAGTGT | 0.998 ± 0.015 |
| TCAGGGATT | 1.01 ± 0.057 |
| GTTGGATTTG | 0.994 ± 0.017 |
| ATATTAGGTC | 1.01 ± 0.016 |
| GATGGGTG | 1.03 ± 0.082 |
| GTTGAAGCCC | 1.013 ± 0.0071 |
| TACAGGTCAT | 1 ± 0.018 |
| ACTGGGATCA | 1.03 ± 0.02 |
| GGGATGTTAT | 1.03 ± 0.014 |
| TTGGTATGAC | 0.988 ± 0.076 |

| Sequence | switch fluorescence ratio |
| --- | --- |
| TGAAACATTT | 0.975 ± 0.036 |
| ATCAGGGCGG | 0.9887 ± 0.0089 |
| AGACTCCAAG | 1 ± 0.059 |
| AGAGACGAAT | 1.013 ± 0.0085 |
| CGGTAGGTGC | 0.976 ± 0.063 |
| CGGCCGTTCG | 1.1 ± 0.14 |
| GTTAAAAGGT | 1 ± 0.039 |
| CAGGGGGAAT | 1.1 ± 0.11 |
| CGTTTGTACT | 1.022 ± 0.0013 |
| GTAGGCGGTG | 0.984 ± 0.029 |
| TTATTCAAGG | 0.99 ± 0.017 |
| CGCTTAGGCA | 1.02 ± 0.053 |
| GACGTGAGGA | 0.989 ± 0.024 |
| AGCGCCAACA | 1.02 ± 0.017 |
| GGGGCGTTAG | 1.002 ± 0.0065 |
| TAAGCGGCGA | 0.973 ± 0.013 |
| AATTGTATGT | 0.989 ± 0.029 |
| TCCTTCTTTA | 1.38 ± 0.43 |
| TGACTATT | 0.9948 ± 0.004 |
